Marks after values point to notes of the source that are not given here. Each block holds one molecule with its values, some of them ahead of it.
How the values were obtained:
[1] = target: T1, huCTGF domains 1 and 2 with human Fc tag (Homo sapiens, UniProt P29279); experiment: ELISA binding to CTGF fragments, human CTGF domains 1 and 2; settings: coated 1 μg/ml, muteins from 1000 nM; for EC50: read-out: EC Human CTGF1-2-huFc
T1 construct: purchased Evitria
Protocol: (§1) Binding of muteins to fragments of human and murine CTGF was tested by an ELISA assay. In detail, a 384-well plate suitable for fluorescence measurements (Greiner FLUOTRAC™ 600, black flat bottom, high-binding) was coated with 20 μl of human (R&D Systems, SEQ ID NO 79) and murine CTGF (Biozol, SEQ ID NO: 80) or fragments thereof (Evitria, huCTGF domains 1 and 2 with human Fc tag (SEQ ID NO 77) and muCTGF domains 1 and 2 with human Fc tag (SEQ ID NO 78)) at a concentration of 1 μg/ml in PBS over night at 4° C. After washing with PBS with 0.05% Tween 20, wells were blocked with 100 μl blocking buffer containing 0.1% Tween 20 and 2% BSA (PBS-T/BSA) for 1 h at room temperature. 20 μl of serially diluted muteins starting at 1000 nM were incubated in PBS-T/BSA for 1 h at room temperature.
(§2) The residual supernatants were discarded and 20 μl HRP-labeled anti-Strep-Tag antibody was added at a predetermined optimal concentration in PBS-T/BSA and incubated for 1 h at RT. After washing, 20 μl fluorogenic HRP substrate (QuantaBlu, Thermo) was added to each well, and the reaction was allowed to proceed for 5 to 25 minutes. The fluorescence intensity of every well on the plate was read using a fluorescence microplate reader (Tecan). Curve fitting was performed using GraphPad Prism 7 software.

Murine CTGF = target: T2, Murine CTGF (Mus musculus, UniProt P29268); experiment: ELISA binding to full-length murine CTGF (Example 9); settings: coated 1 μg/ml, muteins from 1000 nM; for EC50: read-out: EC Murine CTGF
T2 construct: Fc (N); purchased Biozol
T2 sequence (P29268 with tags, fused parts or gaps): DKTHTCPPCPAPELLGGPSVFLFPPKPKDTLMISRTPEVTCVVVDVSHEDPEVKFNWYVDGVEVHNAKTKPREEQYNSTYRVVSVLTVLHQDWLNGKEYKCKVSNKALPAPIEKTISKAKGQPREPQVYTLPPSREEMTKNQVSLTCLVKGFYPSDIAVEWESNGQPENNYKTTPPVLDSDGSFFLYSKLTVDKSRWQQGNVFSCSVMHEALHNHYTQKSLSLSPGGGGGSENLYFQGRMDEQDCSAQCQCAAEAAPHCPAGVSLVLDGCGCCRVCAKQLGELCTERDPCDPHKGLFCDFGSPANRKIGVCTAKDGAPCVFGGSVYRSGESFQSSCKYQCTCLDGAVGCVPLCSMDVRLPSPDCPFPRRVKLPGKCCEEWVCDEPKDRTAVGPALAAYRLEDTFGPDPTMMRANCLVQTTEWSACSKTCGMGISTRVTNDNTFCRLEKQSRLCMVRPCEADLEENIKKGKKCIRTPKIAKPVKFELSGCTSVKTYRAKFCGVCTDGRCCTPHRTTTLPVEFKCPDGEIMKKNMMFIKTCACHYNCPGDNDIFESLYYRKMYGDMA
Protocol: as §1, §2

[2] = Nebulization behavior, droplet size distribution by laser diffraction; format: physicochemical; settings: vibrating mesh nebulizer, Malvern Spraytec
Protocol: The suitability of the CTGF-targeting lipocalin muteins and fusion proteins disclosed herein for administration via inhalation was tested using a commercially available vibrating mesh nebulizer (Philips InnoSpire Go®). Droplet size distribution was characterized by laser diffraction using the nebulizer in conjunction with Malvern Spraytec and inhalation cell.
Representative data for the exemplary CTGF-targeting lipocalin mutein of SEQ ID NO: 23 (A) and for the fusion protein of SEQ ID NO: 74 (B) are shown in FIG. 5 and below Table 10. […] Nebulization of the lipocalin muteins and fusion proteins had no negative impact on the stability and activity of the molecules (data not shown).

[3] = tested on: TGF-β1-stimulated normal human lung fibroblasts (NHLFs); experiment: Binding to activated human lung fibroblasts; format: cell-based; settings: 24 h incubation with 10 ng/ml TGF-β1; immunofluorescence of lipocalin scaffold
Protocol: Binding of the CTGF-targeting lipocalin muteins and fusion proteins disclosed herein to CTGF-expressing, TGF-β1-stimulated normal human lung fibroblasts (NHLFs) was tested by incubating NHLFs for 24 h with constructs and 10 ng/ml TGF-β1, which induces CTGF expression. NHLFs without TGF-β1 stimulation were included as negative control. Constructs were detected with a secondary antibody against the lipocalin scaffold coupled to AlexaFluor647 after NHLFs were fixed in 4% PFA and blocked with 5% BSA. Images were acquired on the Cytation5 Reader (Biotek). Signals were quantified in Gene5 software and normalized to the respective controls. For the experiments, cells were grown under conditions that facilitate pseudo-3D extracellular matrix deposition as described by Good et al. (Good et al., BMC Biomed Eng, 1:14 (2019)).
Representative data are shown in FIG. 4 and illustrate the ability of the CTGF-targeting lipocalin muteins and fusion proteins disclosed herein to bind to activated human lung fibroblasts expressing CTGF in a concentration-dependent manner.

cynomolgus CTGF = experiment: SPR binding kinetics and affinity, cynomolgus CTGF; set-up: key: B binding without determination of kinetics constants; settings: 25° C., 1:1 binding model
cynomolgus CTGF, sequence (as listed by the source): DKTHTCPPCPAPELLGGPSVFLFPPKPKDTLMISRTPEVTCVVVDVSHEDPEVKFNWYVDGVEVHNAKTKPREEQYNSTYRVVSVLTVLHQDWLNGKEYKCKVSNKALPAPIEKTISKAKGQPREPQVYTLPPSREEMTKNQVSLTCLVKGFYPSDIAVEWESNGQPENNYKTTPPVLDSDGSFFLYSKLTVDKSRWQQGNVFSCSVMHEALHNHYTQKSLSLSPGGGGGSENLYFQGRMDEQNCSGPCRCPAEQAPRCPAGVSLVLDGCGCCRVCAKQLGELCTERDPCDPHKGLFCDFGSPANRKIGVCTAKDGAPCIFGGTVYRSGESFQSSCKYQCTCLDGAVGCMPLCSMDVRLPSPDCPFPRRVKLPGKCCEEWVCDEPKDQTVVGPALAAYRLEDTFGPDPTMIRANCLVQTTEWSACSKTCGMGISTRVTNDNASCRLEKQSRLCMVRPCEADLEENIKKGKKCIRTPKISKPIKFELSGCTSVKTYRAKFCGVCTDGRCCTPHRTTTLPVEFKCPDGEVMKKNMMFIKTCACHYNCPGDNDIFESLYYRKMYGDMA
In short: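 Targets either amine-coupled to CM5 chip (300–1100 RU; Fc-tagged human, untagged rat/murine) or Fc-captured via anti-human IgG; muteins injected 180 s contact, 900–3600 s dissociation, 30 μL/min, 25° C. Double-referenced sensorgrams fit to 1:1 model giving kon, koff and KD.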

Mouse lung PK = format: in vivo; settings: mice
Protocol: The lipocalin mutein (100 μg/mouse) was oropharyngeally administered to mice, and exposure in different compartments was measured after 2, 4, 8 and 24 h by ELISA (FIG. 7A). 100 μg of the antibody were administered to mice via intravenous infusion, and exposure was measured after 1, 8, 24 and 96 h by ELISA (FIG. 7B).

[4] = mutein 100 μg oropharyngeal, antibody 100 μg intravenous, compartment of administration set to 100%

T1 sequence (P29279 with tags, fused parts or gaps): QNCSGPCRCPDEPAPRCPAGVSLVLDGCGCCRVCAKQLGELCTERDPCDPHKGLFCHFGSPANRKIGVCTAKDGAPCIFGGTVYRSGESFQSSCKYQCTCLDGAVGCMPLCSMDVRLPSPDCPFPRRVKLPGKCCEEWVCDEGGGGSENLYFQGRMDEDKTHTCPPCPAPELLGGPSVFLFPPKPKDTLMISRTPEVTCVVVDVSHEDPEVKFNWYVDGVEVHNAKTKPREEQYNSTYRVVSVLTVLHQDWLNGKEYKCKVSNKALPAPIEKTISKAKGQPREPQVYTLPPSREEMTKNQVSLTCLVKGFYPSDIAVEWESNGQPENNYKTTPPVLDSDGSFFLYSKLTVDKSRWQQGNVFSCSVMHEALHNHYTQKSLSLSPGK

EC50 [1]: 8.8 nM
EC Murine CTGF (Murine CTGF): n.b.
B1: SEQ ID NO: 25: parent CTGF-binding hNGAL lipocalin mutein (protein)
chain: QDSTSDLIPAPPLSKVPLQQNFQDNQFHGKWYVVGMAGNFRLREDKDPSKMGATIYELKEDKSYNVTQVQFDDKKCLYVIETFVPGSQPGEFTLGAIKSFPGFTSQLVRVVSTNYNQHAMVFFKKVYQNREVFWITLYGRTKELTSELKENFIRFSKSLGLPENHIVFPVPIDQCIDG
modifications: lipocalin mutein

EC50 [1]: 8.4 nM
EC Murine CTGF (Murine CTGF): n.b.
B2: SEQ ID NO: 29: parent CTGF-binding hNGAL lipocalin mutein (protein)
chain: QDSTSDLIPAPPLSKVPLQQNFQDNQFHGKWYVVGWAGNIKLREDKDPFKMSATIYELKEDKSYNVTEVVFEQKKCHYIIKTFVPGSQPGEFTLGDIKSPPGETSSLVRVVSTNYNQHAMVFFKKVFQNREFFWITLYGRTKELTSELKENFIRFSKSLGLPENHIVFPVPIDQCIDG
modifications: lipocalin mutein

EC50 [1]: 17 nM
EC50 (Murine CTGF): 29 nM
B3: SEQ ID NO: 7: parent CTGF-binding hNGAL lipocalin mutein (protein)
chain: QDSTSDLIPAPPLSKVPLQQNFQDNQFHGKWYVVGLAGNYGLRTDKRPSKMFATIYELKEDKSYDVTSVRFEQERCHYTIRTFVPGSQPGEFTTGSIKSRPGQTSSLVRVVSTNYNQHAMVFFKSVIQNREYFAITLYGRTKELTSELKENFIRFSKSLGLPENHIVFPVPIDQCIDG
modifications: lipocalin mutein

Binding to TGFβ-activated NHLFs [3]: binding
B4: SEQ ID NO: 74: fusion protein comprising two CTGF-binding lipocalin muteins (protein)
chain: QDSTSDLIPAPPLSKVPLQQNFQDNQFQGKWYVVGLAGNAILREDKQPAKMFATIYELKEDKSYDVTSVRFEAKSCKYTIKTFVPGSQPGEFTAGYIKSAPGQTSTLVRVVSTNYNQHAMVFFKHVTQNREIFVITLYGRTKELTSELKENFIRFSKSLGLPENHIVFPVPIDQCIDGGGGGSGGGGSGGGGSQDSTSDLIPAPPLSKVPLQQNFQDNQFQGKWYVVGWAGNVKLREDKQPQKMSATIYELKEDKSYDVTEVVFEQKKCHYIIKTFVPGSQPGEFTAGDIKSPPGYTSSLVRVVSTNYNQHAMVFFKKVSQNREFFWITLYGRTKELTSELKENFIRFSKSLGLPENHIVFPVPIDQCIDG
modifications: fusion protein
% V < 1 μm [2]: 0.984%
% V < 5 μm [2]: 54.81%
% V < 10 μm [2]: 88.4%
Dv10 [2]: 1.8 μm
Dv50 [2]: 4.6 μm
Dv90 [2]: 10.5 μm
Dv10 ([2]; listed as 74): 1.824 μm
Dv50 ([2]; listed as 74): 4.589 μm

EC Human CTGF1-2-huFc [1]: n.b.
EC Murine CTGF (Murine CTGF): n.b.
B5: SEQ ID NO: 3: parent CTGF-binding hNGAL lipocalin mutein (protein)
chain: QDSTSDLIPAPPLSKVPLQQNFQDNQFHGKWYVVGRAGNNRLREDKDPPKMWATIYELKEDKSYNVTHVHFMTKKCRYIIDTFVPGSQPGEFTLGAIKSGPGMTSPLVRIVSTNYNQHAMVFFKWVNQNREWFTITLYGRTKELTSELKENFIRFSKSLGLPENHIVFPVPIDQCIDG
modifications: lipocalin mutein

cynomolgus CTGF KD (cynomolgus CTGF): B
cynomolgus CTGF koff (cynomolgus CTGF): B
cynomolgus CTGF kon (cynomolgus CTGF): B
Binding to TGFβ-activated NHLFs [3]: binding
B6: SEQ ID NO: 23: optimized CTGF-binding hNGAL lipocalin mutein (protein)
chain: QDSTSDLIPAPPLSKVPLQQNFQDNQFQGKWYVVGVAGNAILRPDKQPAKMFATIYELKEDKSYDVTSVRFEAKSCKYTIKTFVPGSQPGEFTSGQIKSAPGQTSTLVRVVSTNYNQHAMVFFKHVSQNREIFVITLYGRTKELTSELKENFIRFSKSLGLPENHIVFPVPIDQCIDG
modifications: lipocalin mutein
% V < 1 μm [2]: 1.874%
% V < 5 μm [2]: 68.97%
% V < 10 μm [2]: 93.55%
Dv10 [2]: 1.4 μm
Dv50 [2]: 3.5 μm
Dv90 [2]: 8.6 μm
Dv10 ([2]; listed as 23): 1.471 μm
Dv50 ([2]; listed as 23): 3.484 μm
Dv90 ([2]; listed as 23): 8.622 μm
Exposure in the lung (Mouse lung PK; 100 μg/mouse oropharyngeal, 2-24 h, ELISA): significant exposure in the lung over 24 h
Lung exposure compared to plasma (Mouse lung PK; [4]): 100* %
Plasma exposure compared to lung (Mouse lung PK; [4]): approx. 1%
Plasma exposure compared to lung (Mouse lung PK; mutein 100 μg oropharyngeal, antibody 100 μg intravenous, compartment of administration set to 100%, listed as 23): 0.9%

cynomolgus CTGF koff (cynomolgus CTGF): 7.57e-05 s⁻¹
cynomolgus CTGF kon (cynomolgus CTGF): 107000 M⁻¹ s⁻¹
B7: SEQ ID NO: 15: optimized CTGF-binding hNGAL lipocalin mutein (protein)
chain: QDSTSDLIPAPPLSKVPLQQNFQDNQFQGKWYVVGLAGNAILREDKQPAKMFATIYELKEDKSYDVTSVRFEAKSCKYTIKTFVPGSQPGEFTAGYIKSAPGQTSTLVRVVSTNYNQHAMVFFKHVTQNREIFVITLYGRTKELTSELKENFIRFSKSLGLPENHIVFPVPIDQCIDG
modifications: lipocalin mutein

EC50 [1]: 8 nM
EC50 (Murine CTGF): 11 nM
B8: SEQ ID NO: 9: parent CTGF-binding hNGAL lipocalin mutein (protein)
chain: QDSTSDLIPAPPLSKVPLQQNFQDNQFHGKWYVVGLAGNKILRIDKQPAKMFATIYELKEDKSYDVTSVRFEARSCSYTIKTFVPGSQPGEFTAGNIKSAPGQTSTLVRVVSTNYNQHAMVFFKHVSQNRETFVITLYGRTKELTSELKENFIRFSKSLGLPENHIVFPVPIDQCIDG
modifications: lipocalin mutein
